A short description of this data set: amyloid nucleation score (Sup35N fusion, yeast selection) (log enrichment); library NNK3; higher = more nucleation; inactive = no reads after selection. In short, it runs like this:
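The nucleation score equals the log enrichment of output over input reads from DiMSum, centred on the mode score of non-aggregating sequences. It was computed only for sequences with 100 or more input reads. The reads came from Illumina sequencing of plasmid inserts from psi-negative yeast expressing Sup35N fused to peptides of 20 random codons, induced with 100 μM copper sulfate for 24 hours and grown 7 days at 30°C without adenine and uracil.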

± gives the uncertainty stated by the source.

For the substance IFVRSLAQLGLIFDFHIFWE, the amyloid nucleation score result is “inactive”.

Take FIMNARGVPLEGWWSDGSDK: the amyloid nucleation score result was “inactive”.

Take FYYSWSVFCICMYR: the amyloid nucleation score result was “inactive”.

Take NYLVYSCDVRYSYMVSELAS: the amyloid nucleation score result was “inactive”.

Take IGVQATVICYWRIMNRGHKR: the amyloid nucleation score result was “inactive”.

In the case of VVVSERVREMRDYNVLLRCT, the amyloid nucleation score result was “inactive”.

Turning to EFFSCYTEYPFRPAFLILTT, the amyloid nucleation score entry is “inactive”.

In turn, MSWGGCNAVRKFFECRRRVQ returned an amyloid nucleation score of 0.222 ± 0.5.

With TKWVVASLVCKSAGKTGRVI, the amyloid nucleation score entry is “inactive”.

For FLIISCS, the amyloid nucleation score result was “inactive”.

Consider QTIRTMKRGNRISCVPAGHS, for which the amyloid nucleation score entry was “inactive”.

Turning to CNMSPKNFSIFSFVPNKPVG, the amyloid nucleation score entry is “inactive”.

YISHWASGSFIVNYIERWMR: the amyloid nucleation score is 0.707 ± 0.29.

Substance VTSPFTPSI had an amyloid nucleation score of -0.336 ± 0.63.

LNSDIVVNLNIAWSYCIV: the amyloid nucleation score is 1.39 ± 0.068.

For the substance LYPVTKR, the amyloid nucleation score entry is “inactive”.

For SVSSLRYY, the amyloid nucleation score entry was “inactive”.

The substance YNMNVFAGGCAMCMWISRLF came in with an amyloid nucleation score of 2.61 ± 0.074.

As to NCVRFFYASDLSNYTRA, the amyloid nucleation score entry is “inactive”.

IFWSFTGT: the amyloid nucleation score result was “inactive”.

Turning to QFLRGVMPAGMECAHATMRW, the amyloid nucleation score entry was “inactive”.

Consider MSKHF, for which the amyloid nucleation score result was “inactive”.

Consider GLSHESTYKEEFESSATSGV, for which the amyloid nucleation score result was “inactive”.

For the substance YDLGIGNKHVRYLWGPARKK, the amyloid nucleation score result is “inactive”.

QTAFQRL: the amyloid nucleation score entry was “inactive”.

On to QYHNQYHMIKRLYAFRARMG, for which the amyloid nucleation score result is “inactive”.

Take NSQKVIYKPFEAIYVTGTLT: the amyloid nucleation score entry was “inactive”.

With IYGGCIFYRMSQCARMDTGE, the amyloid nucleation score result is “inactive”.

Consider TRLLAGFSWYVTFPVNVSGS, for which the amyloid nucleation score result was “inactive”.

Take TENCEFFTNPPARPYG: the amyloid nucleation score result is “inactive”.

GTPYCICALSMHSTWDCN: the amyloid nucleation score is 1.64 ± 0.081.

Turning to NCMFPGYLYNVDITLMDV, the amyloid nucleation score result is “inactive”.

With HSLDRKYSWRI, the amyloid nucleation score entry was “inactive”.

As for PDLIHFTCLSSWFSSVVALV, the amyloid nucleation score entry was “inactive”.

RSAKAYLTLWCRMYNPRIYM: the amyloid nucleation score is -0.345 ± 1.3.

In the case of RIPVSWFNWCTWVYVL, the amyloid nucleation score result is “inactive”.

On to FNCSARNYGTRFFCLMRAGV, for which the amyloid nucleation score is -0.654 ± 1.4.

As for FQYKVSFPDRRASQKRWPLP, the amyloid nucleation score entry was “inactive”.

FMVDTHFGNAFCFYMYCC had an amyloid nucleation score of 2.26 ± 0.051.

Take VDSDHIIHSTVLISVLGELD: the amyloid nucleation score entry was “inactive”.

ISAGNTRSTYRLGSWDTSRE: the amyloid nucleation score result was “inactive”.

Turning to AISYYYEHARLGWYGVELRP, the amyloid nucleation score entry is “inactive”.

Substance ANPGG had an amyloid nucleation score of -1.05 ± 2.5.

As for VGYVFFGFPVLKYARQESLS, the amyloid nucleation score entry is “inactive”.

On to VFSGIL, for which the amyloid nucleation score result was “inactive”.

Consider GSLRNPVSGRLENVGGRAWG, for which the amyloid nucleation score result was “inactive”.

In the case of GRRYRKFDNTGGNSPK, the amyloid nucleation score result was “inactive”.

As to VMNHLRRTNLVPTSAVNAYN, the amyloid nucleation score entry was “inactive”.

On to MAYLNLVQV, for which the amyloid nucleation score entry was “inactive”.

With GAGCNVVAAATARSRDGDWS, the amyloid nucleation score was 0.212 ± 0.93.

As to CKSIPWVFYWFLLLYGYL, the amyloid nucleation score entry is “inactive”.

Regarding RMINVSVR, the amyloid nucleation score entry is “inactive”.

In the case of VIRVLQPFDCGCILYSCLIS, the amyloid nucleation score entry was “inactive”.

On to LTTICS, for which the amyloid nucleation score entry was “inactive”.

For YESHLSRRLLIMYIGAFLGR, the amyloid nucleation score entry is “inactive”.

As for SGFYSLIVYNGFERALFVGS, the amyloid nucleation score result is “inactive”.

As to ATCWDEYDPRDPLA, the amyloid nucleation score result was “inactive”.

Substance IRYYFRHLG gave an amyloid nucleation score of -0.203 ± 0.36.

With SLEIEK, the amyloid nucleation score result was “inactive”.

Regarding VIDWAYSPKPSDLTG, the amyloid nucleation score worked out at 1.09 ± 0.16.

In the case of LDMFHSEIIFLMWYRGWVNA, the amyloid nucleation score entry was “inactive”.

As for LTEMVLPLVHHLKTWSFVQE, the amyloid nucleation score entry is “inactive”.

As for VQGTTVDMDYYFTVSCLHAK, the amyloid nucleation score entry is “inactive”.

With YIGRAGQFDRRFFGSLCCAM, the amyloid nucleation score entry was “inactive”.

With CSCFYNNRIISSPMLLWLVQ, the amyloid nucleation score result is “inactive”.

With QEYEGLRDSVKTVEGYVWLM, the amyloid nucleation score entry is “inactive”.

For VCVRYFGDIFYVLYTFVMRA, the amyloid nucleation score came out at 0.051 ± 0.46.

Regarding PSHTLRNTSLSMSVSTTHKA, the amyloid nucleation score entry is “inactive”.

Consider VWLHNFLVMKLSMRNFGWVR, for which the amyloid nucleation score result was “inactive”.

With CWLNLGVLKSLY, the amyloid nucleation score entry was “inactive”.

Turning to RGSWSYQILWINTVRW, the amyloid nucleation score is -0.347 ± 0.53.

Turning to LRLNKLCEVFAPLTSVLAGT, the amyloid nucleation score result was “inactive”.

As for PVLGSHRIVLSFDKIYLSRD, the amyloid nucleation score entry was “inactive”.

FFSVGIKLDVFVWFWGEGHL: the amyloid nucleation score result was “inactive”.

On to HIVKIRSG, for which the amyloid nucleation score entry was “inactive”.

As for TSLVKRSALVFYTGTLIYPF, the amyloid nucleation score result was “inactive”.

With HNLNLDGLMSKSSFTPMVLL, the amyloid nucleation score result is “inactive”.

LFVKMR yielded an amyloid nucleation score of -0.219 ± 0.32.

Substance TVNYYRQNSIIMFESYNECC yielded an amyloid nucleation score of 0.579 ± 0.17.

Turning to SCVRVTSLGVNNTRFFDRSW, the amyloid nucleation score entry was “inactive”.

Turning to SDRARRC, the amyloid nucleation score was 0.163 ± 0.98.

On to WSFRVKTNRDDTEMLLSRSE, for which the amyloid nucleation score entry is “inactive”.

Regarding IHNGKDTLAVVWYGFLIMFW, the amyloid nucleation score entry was “inactive”.

For CLFVCDYGLFECGQMVVEVY, the amyloid nucleation score entry is “inactive”.

For the substance DRRKAEFILTMGPEWYQQLN, the amyloid nucleation score entry was “inactive”.

With NWDFFKLKVNSHLTYAHDHR, the amyloid nucleation score result was “inactive”.

For the substance IAVCHLFLQYLCSRSTFMTL, the amyloid nucleation score result is “inactive”.

VVICILQLHQYFFNYVH had an amyloid nucleation score of 2.11 ± 0.05.

On to IFEVFSVNKV, for which the amyloid nucleation score result is “inactive”.

Consider LDLSSYVHSTLEPGQWKRSR, for which the amyloid nucleation score entry is “inactive”.

For FSRFSNAFPKNCWVLLVENS, the amyloid nucleation score result was “inactive”.

In the case of GGTAHNIGCVSRLVMPARGI, the amyloid nucleation score entry is “inactive”.

In the case of IFVQAYLRGSEICALGDWRL, the amyloid nucleation score result was “inactive”.

As for RWRIEEPTI, the amyloid nucleation score result is “inactive”.

As to CEMVCSTVIPIEVTSWLVMV, the amyloid nucleation score entry is “inactive”.

With VSIKSRLRCLSVVQDNSRCV, the amyloid nucleation score result was “inactive”.

As for IWKRLYPFTVRQVSCTIMCD, the amyloid nucleation score entry was “inactive”.

On to YMLLCPRPRGRSLRINNNDE, for which the amyloid nucleation score result was “inactive”.

For the substance VRGYLYRCKAGSLACHPDPG, the amyloid nucleation score entry is “inactive”.

Regarding PTCGMDFVLQEYTKT, the amyloid nucleation score entry was “inactive”.

For the substance FYKVYSVRLEHFCKCGIECN, the amyloid nucleation score result is “inactive”.

Turning to DIAKCNACGHENMFCRWMCV, the amyloid nucleation score entry is “inactive”.

As for LQGVFRMSQISG, the amyloid nucleation score result is “inactive”.

For WNEAWWNNRLGLARMVVLLG, the amyloid nucleation score result is “inactive”.

For the substance LSEWMSESGNFEFCVASLYR, the amyloid nucleation score entry was “inactive”.

Turning to NCRSFCC, the amyloid nucleation score was 0.905 ± 0.094.

For the substance MRLDRS, the amyloid nucleation score result is “inactive”.

With GMRSLDMRWAGVMYVHRRRL, the amyloid nucleation score entry was “inactive”.

As to WEFLCFFAT, the amyloid nucleation score result is “inactive”.

KYITHLFFFILSERYCWFPM registered an amyloid nucleation score of -0.341 ± 0.56.

In turn, LLMFTFHYSPFS registered an amyloid nucleation score of 0.483 ± 0.37.

With KFLRVFVKRTLESLRRVTSV, the amyloid nucleation score result is “inactive”.

In turn, SIMYFVTNGCGNGC returned an amyloid nucleation score of 1.79 ± 0.086.

In the case of PDWVVPDGGIVTGIVGWCSG, the amyloid nucleation score entry is “inactive”.

As to YQERL, the amyloid nucleation score entry was “inactive”.

For the substance QDDAVFSLSI, the amyloid nucleation score entry was “inactive”.

As for RFSGM, the amyloid nucleation score entry was “inactive”.

As to GFGESGNR, the amyloid nucleation score result is “inactive”.

SVLRYE: the amyloid nucleation score result is “inactive”.

As for YVSQQYCWPGFFHRVHTGKS, the amyloid nucleation score result is “inactive”.

As to YVSRDVGNRNATSY, the amyloid nucleation score result is “inactive”.

With TGVSIKFTSSKYYSVTSATT, the amyloid nucleation score entry was “inactive”.

ISINLIVRCRRLHTPHLPVK: the amyloid nucleation score result was “inactive”.

As to MLIGWC, the amyloid nucleation score entry was “inactive”.

For the substance NGVILYETSAWVTNVYSRFK, the amyloid nucleation score was 1.2 ± 0.18.

RTLTLLYTFF registered an amyloid nucleation score of 2.56 ± 0.052.

Regarding FYIKVVNPCIPYT, the amyloid nucleation score result was “inactive”.

Take CKLYHIIGLYLGVVVL: the amyloid nucleation score result is “inactive”.

For NFNYNQQLSVLLLVFGWTWR, the amyloid nucleation score turned out to be 1.83 ± 0.075.

For IYTFSCDIYCNMSFCLWFDN, the amyloid nucleation score amounted to 2 ± 0.088.

In the case of FRVTY, the amyloid nucleation score result was “inactive”.

Turning to IISMVCED, the amyloid nucleation score was determined as 0.297 ± 0.32.

These data come from the supplement of paper PMC12042874.
